Target: C-terminally truncated SthK 1-420
Assay: high-speed atomic force microscopy (HS-AFM); SthK reconstituted in lipid bilayers (E. coli polar lipid extract, lipid-to-protein ratio 0.8 to 1.0 w:w) as 2D-crystals, adsorbed on mica; imaging buffer 20 mM HEPES pH 8.0, 100 mM KCl, 100 uM cAMP; the oligomer is seen in topographs of single channels

C-terminally truncated SthK 1-420 (domain or fragment)
stoichiometry N: 4
